Assay results: patent US12467053 (BIOMOLECULAR, dated 2025)

Assays:
[1] = target: T1, TNF-alpha (R&D Systems) (UniProt P01375 77-233); assay: Biacore T-100 SPR, response against TNF-alpha concentration. Symmetroadhesin thiol-coupled to a CM-5 chip.
T1 construct: also called tumor necrosis factor α; TNF-α

[2] = target: T1, TNF-alpha (R&D Systems); assay: Biacore T-100 SPR, response against TNF-alpha concentration. Symmetroadhesin amine-coupled to a CM-5 chip.

T1 sequence (P01375 77-233 limits assumed): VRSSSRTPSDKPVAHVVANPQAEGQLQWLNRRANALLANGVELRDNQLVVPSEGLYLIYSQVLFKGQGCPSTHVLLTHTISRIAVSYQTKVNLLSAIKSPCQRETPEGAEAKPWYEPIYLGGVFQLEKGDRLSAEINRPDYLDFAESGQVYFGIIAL

B1: TNR1B symmetroadhesin of FIG. 44A (iv) (human TNR1B extracellular domain with a C-terminal-X-terminus) (receptor)
chain: LPAQVAFTPYAPEPGSTCRLREYYDQTAQMCCSKCSPGQHAKVFCTKTSDTVCDSCEDSTYTQLWNWVPECLSCGSRCSSDQVETQACTREQNRICTCRPGWYCALSKQEGCRLCAPLRKCRPGFGVARPGTETSDVVCKPCAPGTFSNTTSSTDICRPHQICNVVAIPGNASMDAVCTSTSPTRSMAPGAVHLPQPVSTRSQHTQPTPEPSTAPSTSFLLPMGPSPPAEGSTGDGC
modifications: C-terminal X residue (residue 237) added by native chemical ligation; cysteine in the material made (cleavage/elution with cysteine)
notes: The same molecule was immobilised by amine chemistry and by thiol chemistry; also called TNR1B-X; TNR2-X
B1 was tested, and the “EC50 (read off the curve)” value [1] was roughly 0.9 nM and the “EC50 (read off the curve)” value [2] was roughly 4 nM.
